From publication PMC6555819, “Comprehensive study of nuclear receptor DNA binding provides a revised framework for understanding receptor specificity”

B1: NRC3_wobSeed40_DR1_A21T_o1 (dsDNA)
DNA 1: GCTAGCCTAGGTCATGGGCCTGTATACCACGCGAACGCGATTGACAGCGTAGAATGAAGG
DNA 2: CCTTCATTCTACGCTGTCAATCGCGTTCGCGTGGTATACAGGCCCATGACCTAGGCTAGC
B2: NRC3_wobSeed22_DR0_T22G_o1 (dsDNA)
DNA 1: GCTTACCAAGGTGAAGGTCGTGGATCCCTCTGTAGAGCGATTGACAGCGTAGAATGAAGG
DNA 2: CCTTCATTCTACGCTGTCAATCGCTCTACAGAGGGATCCACGACCTTCACCTTGGTAAGC
B3: NRC3_wobSeed65_DR2_T6C_o1 (dsDNA)
DNA 1: GCATACGTAGGTTATCGGGTCATTCAGTTTGCGCATGCGATTGACAGCGTAGAATGAAGG
DNA 2: CCTTCATTCTACGCTGTCAATCGCATGCGCAAACTGAATGACCCGATAACCTACGTATGC
B4: NRC3_wobSeed133_DR5_G17T_o1 (dsDNA)
DNA 1: GCCGTCCAAGGTCAATTCTAGGTCAGTGAAAGCATTGCGATTGACAGCGTAGAATGAAGG
DNA 2: CCTTCATTCTACGCTGTCAATCGCAATGCTTTCACTGACCTAGAATTGACCTTGGACGGC
B5: NRC3_wobSeed133_DR5_C7G_o1 (dsDNA)
DNA 1: GCCGTCGAAGGTCAATGCTAGGTCAGTGAAAGCATTGCGATTGACAGCGTAGAATGAAGG
DNA 2: CCTTCATTCTACGCTGTCAATCGCAATGCTTTCACTGACCTAGCATTGACCTTCGACGGC
B6: NRC3_wobSeed133_DR5_G22C_o1 (dsDNA)
DNA 1: GCCGTCCAAGGTCAATGCTAGCTCAGTGAAAGCATTGCGATTGACAGCGTAGAATGAAGG
DNA 2: CCTTCATTCTACGCTGTCAATCGCAATGCTTTCACTGAGCTAGCATTGACCTTGGACGGC
B7: NRC3_wobSeed55_DR2_A15T_o1 (dsDNA)
DNA 1: GCTCATATAGGTAATCAGGTGAAAGTCCGTAAGTTAGCGATTGACAGCGTAGAATGAAGG
DNA 2: CCTTCATTCTACGCTGTCAATCGCTAACTTACGGACTTTCACCTGATTACCTATATGAGC
B8: NRC3_wobSeed79_DR3_C17A_o1 (dsDNA)
DNA 1: GCTCATATAGGTAATAAAGGTGAAAGTCGGCATCTAGCGATTGACAGCGTAGAATGAAGG
DNA 2: CCTTCATTCTACGCTGTCAATCGCTAGATGCCGACTTTCACCTTTATTACCTATATGAGC
B9: NRC3_wobSeed90_DR3_G9C_o1 (dsDNA)
DNA 1: GCCATACACGGTCAGCTAGGCCAGAGTAGGGACGGCGCGATTGACAGCGTAGAATGAAGG
DNA 2: CCTTCATTCTACGCTGTCAATCGCGCCGTCCCTACTCTGGCCTAGCTGACCGTGTATGGC
B10: NRC3_wobSeed125_DR5_A14G_o1 (dsDNA)
DNA 1: GCCCTTACGGGTCGCTGACAGGTTATAGCATTTGGAGCGATTGACAGCGTAGAATGAAGG
DNA 2: CCTTCATTCTACGCTGTCAATCGCTCCAAATGCTATAACCTGTCAGCGACCCGTAAGGGC
B11: NRC3_wobSeed125_DR5_G11T_o1 (dsDNA)
DNA 1: GCCCTTACGGTTCACTGACAGGTTATAGCATTTGGAGCGATTGACAGCGTAGAATGAAGG
DNA 2: CCTTCATTCTACGCTGTCAATCGCTCCAAATGCTATAACCTGTCAGTGAACCGTAAGGGC
B12: NRC3_wobSeed53_DR2_C15G_o1 (dsDNA)
DNA 1: GCCCTTACGGGTCAGGAGGTTATAGCACGACGAGCGGCGATTGACAGCGTAGAATGAAGG
DNA 2: CCTTCATTCTACGCTGTCAATCGCCGCTCGTCGTGCTATAACCTCCTGACCCGTAAGGGC
B13: NRC3_wobSeed141_DR5_C26A_o1 (dsDNA)
DNA 1: GCAGTCAAAGTTCAGGACGAGGTAAAGTAAAGCACGGCGATTGACAGCGTAGAATGAAGG
DNA 2: CCTTCATTCTACGCTGTCAATCGCCGTGCTTTACTTTACCTCGTCCTGAACTTTGACTGC
B14: NRC3_wobSeed141_DR5_G22A_o1 (dsDNA)
DNA 1: GCAGTCAAAGTTCAGGACGAGATAACGTAAAGCACGGCGATTGACAGCGTAGAATGAAGG
DNA 2: CCTTCATTCTACGCTGTCAATCGCCGTGCTTTACGTTATCTCGTCCTGAACTTTGACTGC
B15: NRC3_wobSeed20_DR0_A9G_o1 (dsDNA)
DNA 1: GCAGAATGGGGTTAAGATCAGGGAAACAGAATACATGCGATTGACAGCGTAGAATGAAGG
DNA 2: CCTTCATTCTACGCTGTCAATCGCATGTATTCTGTTTCCCTGATCTTAACCCCATTCTGC
B16: NRC3_wobSeed20_DR0_G4A_o1 (dsDNA)
DNA 1: GCAAAATGAGGTTAAGATCAGGGAAACAGAATACATGCGATTGACAGCGTAGAATGAAGG
DNA 2: CCTTCATTCTACGCTGTCAATCGCATGTATTCTGTTTCCCTGATCTTAACCTCATTTTGC
B17: NRC3_wobSeed28_DR1_T23A_o1 (dsDNA)
DNA 1: GCCCTACTGGGCCAAAGGTCATAGATTCCAATGCTCGCGATTGACAGCGTAGAATGAAGG
DNA 2: CCTTCATTCTACGCTGTCAATCGCGAGCATTGGAATCTATGACCTTTGGCCCAGTAGGGC
B18: NRC3_wobSeed27_DR1_A15G_o1 (dsDNA)
DNA 1: GCACTCGGAGGACAGAGGTCAGAGCTACGCCAGTGAGCGATTGACAGCGTAGAATGAAGG
DNA 2: CCTTCATTCTACGCTGTCAATCGCTCACTGGCGTAGCTCTGACCTCTGTCCTCCGAGTGC
B19: NRC3_wobSeed119_DR4_A9G_o1 (dsDNA)
DNA 1: GCGGAACGGGGGCATTCGAGTTGATAGCATGGCGATGCGATTGACAGCGTAGAATGAAGG
DNA 2: CCTTCATTCTACGCTGTCAATCGCATCGCCATGCTATCAACTCGAATGCCCCCGTTCCGC
B20: NRC3_wobSeed77_DR3_G19A_o1 (dsDNA)
DNA 1: GCACTTACGGGTCAACGAAGTTATAGCACGCGTATAGCGATTGACAGCGTAGAATGAAGG
DNA 2: CCTTCATTCTACGCTGTCAATCGCTATACGCGTGCTATAACTTCGTTGACCCGTAAGTGC
B21: NRC3_wobSeed85_DR3_A27T_o1 (dsDNA)
DNA 1: GCCGTCCAAGGTCAGAGAGGTCAGTGTATGCCGAGTGCGATTGACAGCGTAGAATGAAGG
DNA 2: CCTTCATTCTACGCTGTCAATCGCACTCGGCATACACTGACCTCTCTGACCTTGGACGGC
B22: NRC3_wobSeed85_DR3_A28C_o1 (dsDNA)
DNA 1: GCCGTCCAAGGTCAGAGAGGTCAGTGACTGCCGAGTGCGATTGACAGCGTAGAATGAAGG
DNA 2: CCTTCATTCTACGCTGTCAATCGCACTCGGCAGTCACTGACCTCTCTGACCTTGGACGGC
B23: NRC3_wobSeed34_DR1_T25C_o1 (dsDNA)
DNA 1: GCATCGAAAGGTCGAAGGTGAGTACACCCACCCGAAGCGATTGACAGCGTAGAATGAAGG
DNA 2: CCTTCATTCTACGCTGTCAATCGCTTCGGGTGGGTGTACTCACCTTCGACCTTTCGATGC
B24: NRC3_wobSeed4_DR0_T22A_o1 (dsDNA)
DNA 1: GCCCTACTGGGCCAAGGTCATAGATCAGTCAAAGCAGCGATTGACAGCGTAGAATGAAGG
DNA 2: CCTTCATTCTACGCTGTCAATCGCTGCTTTGACTGATCTATGACCTTGGCCCAGTAGGGC
B25: NRC3_wobSeed32_DR1_A9T_o1 (dsDNA)
DNA 1: GCTCTTGTTGATCAAAGGTTAAGAAAGCCGAAGCCTGCGATTGACAGCGTAGAATGAAGG
DNA 2: CCTTCATTCTACGCTGTCAATCGCAGGCTTCGGCTTTCTTAACCTTTGATCAACAAGAGC
B26: NRC3_wobSeed74_DR3_A27G_o1 (dsDNA)
DNA 1: GCTCTAGTTGGTCACGGAGGTCACACGCGACGGGTAGCGATTGACAGCGTAGAATGAAGG
DNA 2: CCTTCATTCTACGCTGTCAATCGCTACCCGTCGCGTGTGACCTCCGTGACCAACTAGAGC
B27: NRC3_wobSeed58_DR2_G18C_o1 (dsDNA)
DNA 1: GCATCGAAAGGTCGTGACGTGAGTATACAGAAAGGCGCGATTGACAGCGTAGAATGAAGG
DNA 2: CCTTCATTCTACGCTGTCAATCGCGCCTTTCTGTATACTCACGTCACGACCTTTCGATGC
B28: NRC3_wobSeed10_DR0_A9C_o1 (dsDNA)
DNA 1: GCATCGAACGGTCGAGGTGAGTATAGAGAAAGGGAAGCGATTGACAGCGTAGAATGAAGG
DNA 2: CCTTCATTCTACGCTGTCAATCGCTTCCCTTTCTCTATACTCACCTCGACCGTTCGATGC
B29: NRC3_wobSeed138_DR5_A6T_o1 (dsDNA)
DNA 1: GCGATTCAGGGTCAGCTAGAGGCCAGAGTATGGAAAGCGATTGACAGCGTAGAATGAAGG
DNA 2: CCTTCATTCTACGCTGTCAATCGCTTTCCATACTCTGGCCTCTAGCTGACCCTGAATCGC
B30: NRC3_wobSeed61_DR2_T24A_o1 (dsDNA)
DNA 1: GCCGTCCAAGGTCAGCAGGTCAGAGAAAGCGACGTGGCGATTGACAGCGTAGAATGAAGG
DNA 2: CCTTCATTCTACGCTGTCAATCGCCACGTCGCTTTCTCTGACCTGCTGACCTTGGACGGC
B31: NRC3_wobSeed61_DR2_C21G_o1 (dsDNA)
DNA 1: GCCGTCCAAGGTCAGCAGGTGAGTGAAAGCGACGTGGCGATTGACAGCGTAGAATGAAGG
DNA 2: CCTTCATTCTACGCTGTCAATCGCCACGTCGCTTTCACTCACCTGCTGACCTTGGACGGC
B32: NRC3_wobSeed7_DR0_A13T_o1 (dsDNA)
DNA 1: GCTCATATAGGTTAAGGTGAAAGTCGAACGATATGAGCGATTGACAGCGTAGAATGAAGG
DNA 2: CCTTCATTCTACGCTGTCAATCGCTCATATCGTTCGACTTTCACCTTAACCTATATGAGC
B33: NRC3_wobSeed46_DR1_G10A_o1 (dsDNA)
DNA 1: GCTTACCAAAGTGAAAGGTCGTTGATGCACGCCTTGGCGATTGACAGCGTAGAATGAAGG
DNA 2: CCTTCATTCTACGCTGTCAATCGCCAAGGCGTGCATCAACGACCTTTCACTTTGGTAAGC

Target: PPARg:RXRa (Homo sapiens, UniProt P37231;P19793 full;full)
Sequence (P37231 29-505, chain 1 of 2): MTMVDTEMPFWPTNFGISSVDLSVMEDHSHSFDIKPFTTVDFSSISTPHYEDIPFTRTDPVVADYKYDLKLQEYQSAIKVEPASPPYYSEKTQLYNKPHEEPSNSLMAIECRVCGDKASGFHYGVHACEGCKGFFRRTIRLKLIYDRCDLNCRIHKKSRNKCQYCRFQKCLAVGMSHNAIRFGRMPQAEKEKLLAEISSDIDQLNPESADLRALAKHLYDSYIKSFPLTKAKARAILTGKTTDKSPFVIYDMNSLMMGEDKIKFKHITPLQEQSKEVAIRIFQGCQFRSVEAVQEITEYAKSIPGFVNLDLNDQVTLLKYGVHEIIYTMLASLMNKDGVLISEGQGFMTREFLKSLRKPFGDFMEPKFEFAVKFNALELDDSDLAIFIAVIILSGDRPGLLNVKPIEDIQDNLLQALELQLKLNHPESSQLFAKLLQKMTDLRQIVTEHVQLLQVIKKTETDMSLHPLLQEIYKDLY
Sequence (P19793 whole entry, chain 2 of 2): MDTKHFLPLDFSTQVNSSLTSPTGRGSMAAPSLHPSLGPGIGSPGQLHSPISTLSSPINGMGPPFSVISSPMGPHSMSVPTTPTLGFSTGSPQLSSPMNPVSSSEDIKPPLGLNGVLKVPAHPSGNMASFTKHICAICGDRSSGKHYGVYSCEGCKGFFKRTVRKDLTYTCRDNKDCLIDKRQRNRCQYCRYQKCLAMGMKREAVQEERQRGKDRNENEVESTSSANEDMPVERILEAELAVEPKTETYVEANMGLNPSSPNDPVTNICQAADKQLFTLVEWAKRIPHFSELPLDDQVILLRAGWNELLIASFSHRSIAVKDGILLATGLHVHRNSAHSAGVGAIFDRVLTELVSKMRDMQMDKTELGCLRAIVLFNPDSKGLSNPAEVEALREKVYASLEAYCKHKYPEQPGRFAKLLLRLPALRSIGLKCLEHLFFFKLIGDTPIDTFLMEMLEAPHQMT
Assay: no ligand; PBM; 180 nM : 90 nM RXRa; PBS pH 7.4, 2% milk, 0.02% Triton X-100, 1 mM DTT, BSA, 0.4 mg/ml salmon testes DNA
Settings: tags: His kept;His cleaved; copies: 1;1; label: surface-attached array probe

Binder | binding signal
B1 | 3.23 PBM z-score against 500 random probes
B2 | 3.58 PBM z-score against 500 random probes
B3 | 3.06 PBM z-score against 500 random probes
B4 | 4.21 PBM z-score against 500 random probes
B5 | 4.13 PBM z-score against 500 random probes
B6 | 3.28 PBM z-score against 500 random probes
B7 | 3.84 PBM z-score against 500 random probes
B8 | 3.46 PBM z-score against 500 random probes
B9 | 0.49 PBM z-score against 500 random probes
B10 | 0.49 PBM z-score against 500 random probes
B11 | 0.49 PBM z-score against 500 random probes
B12 | 3.77 PBM z-score against 500 random probes
B13 | 4.92 PBM z-score against 500 random probes
B14 | 4.64 PBM z-score against 500 random probes
B15 | 4.73 PBM z-score against 500 random probes
B16 | 3.12 PBM z-score against 500 random probes
B17 | 12.8 PBM z-score against 500 random probes

Binder | binding signal
B18 | 4.56 PBM z-score against 500 random probes
B19 | 3 PBM z-score against 500 random probes
B20 | 4.99 PBM z-score against 500 random probes
B21 | 3.51 PBM z-score against 500 random probes
B22 | 3.39 PBM z-score against 500 random probes
B23 | 4.49 PBM z-score against 500 random probes
B24 | 4.36 PBM z-score against 500 random probes
B25 | 4.28 PBM z-score against 500 random probes
B26 | 3.93 PBM z-score against 500 random probes
B27 | 3.63 PBM z-score against 500 random probes
B28 | 0.48 PBM z-score against 500 random probes
B29 | 4.08 PBM z-score against 500 random probes
B30 | 4.83 PBM z-score against 500 random probes
B31 | 3.18 PBM z-score against 500 random probes
B32 | 4.42 PBM z-score against 500 random probes
B33 | 3.7 PBM z-score against 500 random probes
